These results are taken from patent CN118206654A (BEILAI PHARMACEUTICAL CO LTD, dated 2024).

Test [1] has as its target IL-17RA and IL-17RC co-expressed on 293F-IL-17RA-IL-17Rc-ACT1-NFκB-Luc cells (UniProt Q96F46). The experiment in a line: flow cytometry; IL17A-His on 293F-IL-17RA-IL-17Rc-ACT1-NFκB-Luc cells, APC anti-His. (A flow cytometer gives signals particle by particle.)
The next test addresses T1, Biotin-IL-17A-His (human, UniProt Q16552 24-155, limits assumed, biotin (site not stated)).
T1 construct: also called 人IL-17A蛋白 (biotinylated)
T1 sequence: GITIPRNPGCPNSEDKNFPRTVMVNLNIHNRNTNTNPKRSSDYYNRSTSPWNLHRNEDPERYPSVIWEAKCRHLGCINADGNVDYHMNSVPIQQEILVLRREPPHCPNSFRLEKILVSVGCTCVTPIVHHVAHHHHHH
As to the kind of experiment: ELISA; antibody coated at 2 ug/mL, Biotin-IL-17A-His titrated from 10 ug/mL (5-fold, 7 points), HRP-Streptavidin; the concentration is that of IL-17A. (In general: In an ELISA, binding on a coated surface is turned into a signal by an enzyme label.)

In the case of “Human IL-17A重组蛋白 (C-terminal 6×His) (from UniProt Q16552 24-155) (ligand)”, the 阳性率 in test [1] is more than 90%.

B1: 阳性对照抗体Ixekizumab (antibody, human IgG4 S228P, kappa, V domains shown)
VH: QVQLVQSGAEVKKPGSSVKVSCKASGYSFTDYHIHWVRQAPGQGLEWMGVINPMYGTTDYNQRFKGRVTITADESTSTAYMELSSLRSEDTAVYYCARYDYFTGTGVYWGQGTLVTVSS
VL: DIVMTQTPLSLSVTPGQPASISCRSSRSLVHSRGNTYLHWYLQKPGQSPQLLIYKVSNRFIGVPDRFSGSGSGTDFTLKISRVEAEDVGVYYCSQSTHLPFTFGQGTKLEIKR
notes: also called 阳性抗体
Broadly, the EC50 is the concentration that produces a half-maximal response. Regarding B1, the EC50 with Biotin-IL-17A-His worked out at 10.1 µg/mL.
